Values quoted from earlier work in US12268667B2, “JAK1 pathway inhibitors for the treatment of prurigo nodularis” (Incyte Corporation, priority 2021, dated 2025).

Experiments:
[1] = test system: PN lesional skin; settings: PN skin cultured with nemolizumab; cited from earlier work
[2] = test system: IL-31; settings: cited from earlier work

B1: nemolizumab (antibody, chains of the INN, looked up)
heavy: QVQLVQSGAEVKKPGASVKVSCKASGYTFTGYIMNWVRQAPGQGLEWMGLINPYNGGTDYNPQFQDRVTITADKSTSTAYMELSSLRSEDTAVYYCARDGYDDGPYTLETWGQGTLVTVSSASTKGPSVFPLAPSSKSTSGGTAALGCLVKDYFPEPVTVSWNSGALTSGVHTFPAVLQSSGLYSLSSVVTVPSSNFGTQTYTCNVDHKPSNTKVDKTVERKSCVECPPCPAPPVAGPSVFLFPPKPKDTLMISRTPEVTCVVVDVSQEDPEVQFNWYVDGVEVHNAKTKPREEQFNSTFRVVSVLTVVHQDWLNGKEYKCKVSNKGLPAPIEKTISKTKGQPREPQVYTLPPSQEEMTKNQVSLTCLVKGFYPSDIAVEWESNGQPENNYKTTPPMLDSDGSFFLYSKLTVDKSRWQEGNVFSCSVMHEALHNHYTQKSLSLSP
light: DIQMTQSPSSLSASVGDRVTITCQASEDIYSFVAWYQQKPGKAPKLLIYNAQTEAQGVPSRFSGSGSGTDFTLTISSLQPEDFATYYCQHHYDSPLTFGGGTKVEIKRTVAAPSVFIFPPSDEQLKSGTASVVCLLNNFYPREAKVQWKVDNALQSGNSQESVTEQDSKDSTYSLSSTLTLSKADYEKHKVYACEVTHQGLSSPVTKSFNRGEC
[1]
  IL-17 levels in lesional skin: reduction in IL-17 levels
[2]
  effect on pruritus and skin lesions in PN patients: improvement in pruritus and skin lesions
